Test results as given in patent publication CN116507641A.

Experiments:
[1] = biological target: 人重组结合素-4蛋白 (recombinant human Nectin-4, extracellular domain) (human) (UniProt Q96NY8); test: ELISA, recombinant human Nectin-4 coated on plate
[2] = biological target: 人结合素-4 (full-length human Nectin-4 on cells) (human) (UniProt Q96NY8); test: FACS competition: antibody titrated against biotinylated human Nectin-1-His (competitor, 0.75 ug/ml) on CHO-Nectin-4 cells
Chain of 人结合素-4 (full-length human Nectin-4 on cells) (human) (Q96NY8 32-510): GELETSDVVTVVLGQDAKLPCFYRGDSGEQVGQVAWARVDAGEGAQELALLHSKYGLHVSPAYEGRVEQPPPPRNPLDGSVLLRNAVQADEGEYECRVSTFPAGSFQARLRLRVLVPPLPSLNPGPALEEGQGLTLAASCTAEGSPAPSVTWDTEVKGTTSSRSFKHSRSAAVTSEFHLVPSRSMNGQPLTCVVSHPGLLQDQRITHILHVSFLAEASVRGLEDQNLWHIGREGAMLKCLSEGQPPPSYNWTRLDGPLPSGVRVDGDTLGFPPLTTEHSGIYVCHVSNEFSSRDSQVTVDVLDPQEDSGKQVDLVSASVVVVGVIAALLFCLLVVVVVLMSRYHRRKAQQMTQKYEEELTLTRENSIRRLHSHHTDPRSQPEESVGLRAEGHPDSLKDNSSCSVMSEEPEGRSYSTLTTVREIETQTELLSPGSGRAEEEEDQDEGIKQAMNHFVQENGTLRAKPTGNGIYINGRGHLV

Chain of 人重组结合素-4蛋白 (recombinant human Nectin-4, extracellular domain) (human) (Q96NY8 32-349): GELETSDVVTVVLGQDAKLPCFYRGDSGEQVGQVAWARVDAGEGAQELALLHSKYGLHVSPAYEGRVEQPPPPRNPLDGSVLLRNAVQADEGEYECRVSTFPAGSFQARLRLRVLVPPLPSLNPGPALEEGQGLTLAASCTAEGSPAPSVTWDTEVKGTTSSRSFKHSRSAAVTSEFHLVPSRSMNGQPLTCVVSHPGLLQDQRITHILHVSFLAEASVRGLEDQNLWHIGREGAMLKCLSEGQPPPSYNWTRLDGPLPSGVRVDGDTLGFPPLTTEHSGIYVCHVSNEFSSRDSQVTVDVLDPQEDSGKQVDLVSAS

EC50 [1]: 0.34 nM
EC50 [2]: 0.16 nM
Substance: 阳性对照1 (PC1), in-house Nectin-4-specific antibody based on enfortumab antibody (AGS-22M6)
